Data from paper PMC13230913 (Nature Communications, 2026).

T1: stabilized, soluble prefusion measles virus F ectodomain (F_ECTO E170G, E455G, residues 1-495) (Measles virus strain Ichinose-B95a, stabilised)
T1 chain 1: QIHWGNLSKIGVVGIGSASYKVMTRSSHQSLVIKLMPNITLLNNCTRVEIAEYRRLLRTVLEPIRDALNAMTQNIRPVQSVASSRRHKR
T1 chain 2: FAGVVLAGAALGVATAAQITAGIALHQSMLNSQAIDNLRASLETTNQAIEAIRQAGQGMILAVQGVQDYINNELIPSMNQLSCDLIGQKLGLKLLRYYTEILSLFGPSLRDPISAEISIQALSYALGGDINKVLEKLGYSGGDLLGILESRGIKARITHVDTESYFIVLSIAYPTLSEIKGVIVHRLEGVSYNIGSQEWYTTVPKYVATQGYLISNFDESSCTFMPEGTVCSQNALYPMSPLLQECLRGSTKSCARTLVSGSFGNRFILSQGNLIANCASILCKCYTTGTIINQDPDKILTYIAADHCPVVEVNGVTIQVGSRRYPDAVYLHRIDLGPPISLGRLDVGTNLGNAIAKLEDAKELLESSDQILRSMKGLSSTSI

B1: chimeric monoclonal antibody 77.1 (mouse Fab / human Fc) (antibody, V domains shown)
VH: DVQLQESGPGLVKPSQSLSLTCTVSGYSITSDYAWNWIRQFPGNKLEWMGYISYTLTTGYNPSLKSRISITRDSSKNQFFLQLNSVTTEDTATYYCARSGWLLPYWYFDVWGAGTTVTVSS
VL: DVQITQSPSYLAASPGETITINCRASKSISKYLAWYQEKPGKTNELLIYSGSTLQSGIPSRFRGSGSGTDFTLTISSLEPEDFAMYYCQQHNEYTLTFGGGTKLELK
B2: Y10F Fab (Fab, V domains shown)
VH: QVQLQQSGAELMKPGASVKISCKAAGYTFSNYWIEWVKQRPGHGLEWIGEILPGNSYTNYNEKFRGKATITADTSSNTAYMQLSSLTSEDSAVYYCASPLSGNYVRFAYWGQGTLVTVST
VL: QIVLSQSPAILSASPGEKVTMTCRATSSVVYMHWYQQKPGSSPKPWIYATSNLASGVPTRFSGSGSGTSYSLTISRVEAEDAATYYCQQWNSNPYTFGGGTKLEIK
B3: chimeric monoclonal antibody Y10F (mouse Fab / human Fc) (antibody, V domains shown)
VH: QVQLQQSGAELMKPGASVKISCKAAGYTFSNYWIEWVKQRPGHGLEWIGEILPGNSYTNYNEKFRGKATITADTSSNTAYMQLSSLTSEDSAVYYCASPLSGNYVRFAYWGQGTLVTVST
VL: QIVLSQSPAILSASPGEKVTMTCRATSSVVYMHWYQQKPGSSPKPWIYATSNLASGVPTRFSGSGSGTSYSLTISRVEAEDAATYYCQQWNSNPYTFGGGTKLEIK
B4: chimeric monoclonal antibody H8 (mouse Fab / human Fc) (antibody, V domains shown)
VH: QVQLQQSGAELVRPGTSVKISCKASGYTFINYWLGWVKQRPGHGLEWIGDIYPGGGHTKYNEKFKGKATLTADTSSSTAYMQLSSLTSEDSAVFFCARSGVGSSYYYWGQGTTLTVSS
VL: DIVLTQSPASLAVSLGQRATISCRASKSVSSSGYSFLHWYQQKPGQPPKLLIYLASNLDSGVPARFSGSGSGTDFTLNIHPVEEEDATTYYCQHSWELPTFGGGTKLEIK

Legend:
[1] = target: T1, stabilized, soluble prefusion measles …; experiment: SPR
[2] = target: T1, stabilized, soluble prefusion measles …; experiment: cell-based or functional assay
[3] = target: measles virus B3 F protein with L454W (destabilized prefusion conformation), on cells (Measles virus genotype B3)

| Binder | Kd [1] | koff [1] | kon [1] | melting temperature of F_ECTO with Fab by nanoDSF (F_ECTO alone 47.2 °C) [2] | IC90 of plaque reduction neutralization test (PRNT), virus B3 F-L454W [3] |
| --- | --- | --- | --- | --- | --- |
| B1 | 1.71 nM | 0.000207 s⁻¹ | 121000 ± 2000 M⁻¹ s⁻¹ | – | – |
| B2 | – | – | – | 55.5 °C | – |
| B3 | 99.9 nM | 0.00179 s⁻¹ | 17900 ± 300 M⁻¹ s⁻¹ | – | – |
| B4 | 3.17 nM | 7.48e-05 s⁻¹ | 23600 ± 810 M⁻¹ s⁻¹ | – | 23 nM |
